In patent US20240200091A1, “USE OF PROTOPORPHYRINOGEN OXIDASE” (BEIJING DABEINONG BIOTECHNOLOGY CO., LTD., priority 2021, published 2024):

What was measured:
Assay type in all cases: in vivo
[1] = test system: transgenic soybean plants; assay: saflufenacil tolerance of transgenic soybean plants (spray, grade of pesticide damage); conditions: for The grade of pesticide damage/plant: grade 0 / The grade of pesticide damage/plant: grade 1 / The grade of pesticide damage/plant: grade 2 / The grade of pesticide damage/plant: grade 3: 7 DAT, number of plants of 16 per genotype, grades
[2] = test system: transgenic soybean plants; assay: oxyfluorfen tolerance of transgenic soybean plants (spray, grade of pesticide damage); conditions: for The grade of pesticide damage/plant: grade 0 / The grade of pesticide damage/plant: grade 1 / The grade of pesticide damage/plant: grade 2 / The grade of pesticide damage/plant: grade 3: 7 DAT, number of plants of 16 per genotype, grades; for tolerance to oxyfluorfen: soybean
[3] = test system: transgenic soybean plants; assay: flumioxazin tolerance of transgenic soybean plants (spray, grade of pesticide damage); conditions: for The grade of pesticide damage/plant: grade 0 / The grade of pesticide damage/plant: grade 1 / The grade of pesticide damage/plant: grade 2 / The grade of pesticide damage/plant: grade 3: 7 DAT, number of plants of 16 per genotype, grades
[4] = test system: Arabidopsis thaliana T1 plants; assay: oxyfluorfen tolerance of transgenic Arabidopsis thaliana T1 plants (spray, grade of pesticide damage); conditions: 7 DAT, number of plants of 24 per genotype, grades
Outline: (§1)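 Read-out: injury grade at 7 DAT from injured vs total leaf area (0 = as water-sprayed; 1 = <10%; 3 = 100%); grades 0–1 were rated highly resistant. Plants were 18-day-old glufosinate-selected PPO-transgenic T1 lines plus controls, n = 24 per genotype. Doses: saflufenacil 25/100, sulfentrazone 450/900, flumioxazin 60/240, oxyfluorfen 180/720 g ai/ha.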

[5] = test system: Arabidopsis thaliana T1 plants; assay: saflufenacil tolerance of transgenic Arabidopsis thaliana T1 plants (spray, grade of pesticide damage); conditions: 7 DAT, number of plants of 24 per genotype, grades
Outline: as §1

[6] = test system: Arabidopsis thaliana T1 plants; assay: flumioxazin tolerance of transgenic Arabidopsis thaliana T1 plants (spray, grade of pesticide damage); conditions: 7 DAT, number of plants of 24 per genotype, grades
Outline: as §1

[7] = test system: Arabidopsis thaliana T1 plants; assay: sulfentrazone tolerance of transgenic Arabidopsis thaliana T1 plants (spray, grade of pesticide damage); conditions: 7 DAT, number of plants of 24 per genotype, grades
Outline: as §1

B1: PPO-ECA: nucleotide sequence encoding Escherichia coli protoporphyrinogen oxidase PPO-EC (SEQ ID NO:43), Arabidopsis thaliana/soybean common codon usage bias (nucleic acid)
DNA: ATGAAAACACTTATCTTGTTCTCAACTAGAGATGGACAGACAAGAGAGATTGCTTCTTACTTGGCTTCAGAACTTAAGGAGTTGGGTATTCAAGCTGATGTTGCTAATGTTCATAGAATTGAAGAGCCTCAGTGGGAAAACTATGATAGAGTTGTTATTGGAGCTTCTATTAGATATGGTCATTACCATTCAGCTTTTCAAGAGTTCGTTAAGAAACATGCTACTAGACTTAACTCTATGCCATCAGCTTTTTACTCTGTTAACTTGGTTGCTAGAAAGCCTGAGAAAAGAACTCCACAAACAAACTCTTACGCTAGAAAGTTCCTTATGAACTCACAGTGGAGACCTGATAGATGCGCTGTTATTGCTGGTGCTCTTAGATATCCAAGATACAGATGGTACGATAGATTCATGATCAAGTTGATTATGAAAATGTCTGGAGGTGAAACTGATACAAGAAAGGAGGTTGTTTACACAGATTGGGAACAGGTTGCTAATTTCGCTAGAGAGATTGCTCATCTTACTGATAAGCCAACATTGAAATGA
modifications: The nucleotide sequence of PPO-ECA
[1]; saflufenacil 50 g ai/ha (2×)
  The grade of pesticide damage/plant: grade 0: 9 plant
  The grade of pesticide damage/plant: grade 1: 7 plant
  The grade of pesticide damage/plant: grade 2: 0 plant
  The grade of pesticide damage/plant: grade 3: 0 plant
[1]; saflufenacil 100 g ai/ha (4×)
  The grade of pesticide damage/plant: grade 0: 8 plant
  The grade of pesticide damage/plant: grade 1: 3 plant
  The grade of pesticide damage/plant: grade 2: 5 plant
  The grade of pesticide damage/plant: grade 3: 0 plant
[1]; soybean, saflufenacil, compared with the control vector and CK
  tolerance to saflufenacil: different extents of tolerance
[2]; oxyfluorfen 360 g ai/ha (2×)
  The grade of pesticide damage/plant: grade 0: 16 plant
  The grade of pesticide damage/plant: grade 1: 0 plant
  The grade of pesticide damage/plant: grade 2: 0 plant
  The grade of pesticide damage/plant: grade 3: 0 plant
[2]; oxyfluorfen 720 g ai/ha (4×)
  The grade of pesticide damage/plant: grade 0: 13 plant
  The grade of pesticide damage/plant: grade 1: 3 plant
  The grade of pesticide damage/plant: grade 2: 0 plant
  The grade of pesticide damage/plant: grade 3: 0 plant
[2]; oxyfluorfen at four-fold field concentration (720 g ai/ha)
  tolerance to oxyfluorfen: high-resistant tolerance
[2]; oxyfluorfen at two-fold field concentration (360 g ai/ha)
  tolerance to oxyfluorfen: high-resistant tolerance
[3]; flumioxazin 120 g ai/ha (2×)
  The grade of pesticide damage/plant: grade 0: 16 plant
  The grade of pesticide damage/plant: grade 1: 0 plant
  The grade of pesticide damage/plant: grade 2: 0 plant
  The grade of pesticide damage/plant: grade 3: 0 plant
[3]; flumioxazin 240 g ai/ha (4×)
  The grade of pesticide damage/plant: grade 0: 15 plant
  The grade of pesticide damage/plant: grade 1: 1 plant
  The grade of pesticide damage/plant: grade 2: 0 plant
  The grade of pesticide damage/plant: grade 3: 0 plant
[3]; soybean, flumioxazin at different concentrations (120 and 240 g ai/ha)
  tolerance to flumioxazin: high-resistant tolerance

B2: PPO13A: nucleotide sequence encoding microbial protoporphyrinogen oxidase PPO13 (SEQ ID NO:13), Arabidopsis thaliana/soybean common codon usage bias (nucleic acid)
DNA: ATGGCTAAAGCTCTTTTCCTGTACTCATCTAGAGAAGGACAAACAAAGAAGATTCTTCATTACATAGACGAGAAGTTAACTGGGTTTGAGTGTGAACTCGTTGATTTGCACAATGTCGAAACTATTGATTTTTCTCAGTATGATAGAGTCTTAATTGGAGCGTCCATACGATATGGTCATCTCAACAAGAAATTATATCAGTTTATCGACCGTAACCTGAACCAGCTAGAGCAAAGCAAGGTAGCTTTCTTCTGCGTGAATCTCACCGCACGGAAAGAGGATCAAGGAAAAGATACTCCTGAAGGCTCAGCTTACATAAGGAAGTTTCTTATCAAATCGCCTTGGAAACCGACATTGATTGGTGTTTTCGCAGGTGCACTTTACTATCCAAGATATGGGTGGTTTGATAAAACAATGATCAAATTCATCATGAGTATGACTGGTGGAGAAACCGACACGACCAAGGAAGTTGAGTACACAAATTGGGAAAAAGTGGCCTTGTTTGCTGATAAGTTCAAGGAGCTATGA
modifications: The nucleotide sequence of PPO13A
[4]; oxyfluorfen 180 g ai/ha (1×)
  The grade of pesticide damage/plant: grade 0: 24 plant
  The grade of pesticide damage/plant: grade 1: 0 plant
  The grade of pesticide damage/plant: grade 2: 0 plant
  The grade of pesticide damage/plant: grade 3: 0 plant
[4]; oxyfluorfen 720 g ai/ha (4×)
  The grade of pesticide damage/plant: grade 0: 18 plant
  The grade of pesticide damage/plant: grade 1: 6 plant
  The grade of pesticide damage/plant: grade 2: 0 plant
  The grade of pesticide damage/plant: grade 3: 0 plant
[5]; saflufenacil 25 g ai/ha (1×)
  The grade of pesticide damage/plant: grade 0: 24 plant
  The grade of pesticide damage/plant: grade 1: 0 plant
  The grade of pesticide damage/plant: grade 2: 0 plant
  The grade of pesticide damage/plant: grade 3: 0 plant
[5]; saflufenacil 100 g ai/ha (4×)
  The grade of pesticide damage/plant: grade 0: 0 plant
  The grade of pesticide damage/plant: grade 1: 24 plant
  The grade of pesticide damage/plant: grade 2: 0 plant
  The grade of pesticide damage/plant: grade 3: 0 plant
[6]; flumioxazin 60 g ai/ha (1×)
  The grade of pesticide damage/plant: grade 0: 24 plant
  The grade of pesticide damage/plant: grade 1: 0 plant
  The grade of pesticide damage/plant: grade 2: 0 plant
  The grade of pesticide damage/plant: grade 3: 0 plant
[6]; flumioxazin 240 g ai/ha (4×)
  The grade of pesticide damage/plant: grade 0: 19 plant
  The grade of pesticide damage/plant: grade 1: 5 plant
  The grade of pesticide damage/plant: grade 2: 0 plant
  The grade of pesticide damage/plant: grade 3: 0 plant
[7]; sulfentrazone 450 g ai/ha (1×)
  The grade of pesticide: grade 0: 24
  The grade of pesticide: grade 1: 0
  The grade of pesticide: grade 2: 0
  The grade of pesticide: grade 3: 0
[7]; sulfentrazone 900 g ai/ha (2×)
  The grade of pesticide: grade 0: 23
  The grade of pesticide: grade 1: 1
  The grade of pesticide: grade 2: 0
  The grade of pesticide: grade 3: 0

B3: PPO14A: nucleotide sequence encoding microbial protoporphyrinogen oxidase PPO14 (SEQ ID NO:14), Arabidopsis thaliana/soybean common codon usage bias (nucleic acid)
DNA: ATGTCTAACAAGGCCTTGCTGCTCTATAGTACAAGAGAAGGTCAAACTAAAAAGATTCTTCAGTACATAGACAAAGAGCTTCATGATTACCAATGTGATTATGTCGATCTTCACACAATGCCTATAGAGATTGATTTCTCTGGTTATGATAAAGTTTTGGTAGGGGCGTCCATCCGGTATGGACATTTAAACAAAAAACTTTACAGATTCATCGAGAGGTACAAAGCAGAGTTGAAGGATAATAATGCTGCTTTCTTCTGCGTCAATCTAACCGCAAGGAAAGAACAACAAGGAAAAGATACTCCTGAAGGATCAGCTTATATTCAGACTTTTCTCAAGAAGTCTCCATGGCAGCCAGCATTGATAGGTGTTTTTGCTGGAGCTTTACGTTACCCGAAGTATAGATGGTTTGACAAGATGATGATTCGACTAATCATGACTATGACGGGCGGTGAAACCGACACATCAAAGGAAGTGGAGTATACAAATTGGAAGAAAGTGAGCCTCTTTGTTGAAAACTGGCAAAAGCAGTGA
modifications: The nucleotide sequence of PPO14A
[4]; oxyfluorfen 180 g ai/ha (1×)
  The grade of pesticide damage/plant: grade 0: 24 plant
  The grade of pesticide damage/plant: grade 1: 0 plant
  The grade of pesticide damage/plant: grade 2: 0 plant
  The grade of pesticide damage/plant: grade 3: 0 plant
[4]; oxyfluorfen 720 g ai/ha (4×)
  The grade of pesticide damage/plant: grade 0: 20 plant
  The grade of pesticide damage/plant: grade 1: 4 plant
  The grade of pesticide damage/plant: grade 2: 0 plant
  The grade of pesticide damage/plant: grade 3: 0 plant
[5]; saflufenacil 25 g ai/ha (1×)
  The grade of pesticide damage/plant: grade 0: 24 plant
  The grade of pesticide damage/plant: grade 1: 0 plant
  The grade of pesticide damage/plant: grade 2: 0 plant
  The grade of pesticide damage/plant: grade 3: 0 plant
[5]; saflufenacil 100 g ai/ha (4×)
  The grade of pesticide damage/plant: grade 0: 0 plant
  The grade of pesticide damage/plant: grade 1: 24 plant
  The grade of pesticide damage/plant: grade 2: 0 plant
  The grade of pesticide damage/plant: grade 3: 0 plant
[6]; flumioxazin 60 g ai/ha (1×)
  The grade of pesticide damage/plant: grade 0: 24 plant
  The grade of pesticide damage/plant: grade 1: 0 plant
  The grade of pesticide damage/plant: grade 2: 0 plant
  The grade of pesticide damage/plant: grade 3: 0 plant
[6]; flumioxazin 240 g ai/ha (4×)
  The grade of pesticide damage/plant: grade 0: 19 plant
  The grade of pesticide damage/plant: grade 1: 5 plant
  The grade of pesticide damage/plant: grade 2: 0 plant
  The grade of pesticide damage/plant: grade 3: 0 plant
[7]; sulfentrazone 450 g ai/ha (1×)
  The grade of pesticide: grade 0: 24
  The grade of pesticide: grade 1: 0
  The grade of pesticide: grade 2: 0
  The grade of pesticide: grade 3: 0
[7]; sulfentrazone 900 g ai/ha (2×)
  The grade of pesticide: grade 0: 19
  The grade of pesticide: grade 1: 5
  The grade of pesticide: grade 2: 0
  The grade of pesticide: grade 3: 0
